Measurements from patent US20220155314A1 (ACADEMIA SINICA, published 2022).

Target: T1, HA-GCM1 (UniProt Q9NP62 1-436)
T1 construct: Expressed in transfected 293T or Hep3B cells; also called glial cells missing 1; pHA-GCM1; not shown: N-terminal HA tag
T1 sequence (looked up): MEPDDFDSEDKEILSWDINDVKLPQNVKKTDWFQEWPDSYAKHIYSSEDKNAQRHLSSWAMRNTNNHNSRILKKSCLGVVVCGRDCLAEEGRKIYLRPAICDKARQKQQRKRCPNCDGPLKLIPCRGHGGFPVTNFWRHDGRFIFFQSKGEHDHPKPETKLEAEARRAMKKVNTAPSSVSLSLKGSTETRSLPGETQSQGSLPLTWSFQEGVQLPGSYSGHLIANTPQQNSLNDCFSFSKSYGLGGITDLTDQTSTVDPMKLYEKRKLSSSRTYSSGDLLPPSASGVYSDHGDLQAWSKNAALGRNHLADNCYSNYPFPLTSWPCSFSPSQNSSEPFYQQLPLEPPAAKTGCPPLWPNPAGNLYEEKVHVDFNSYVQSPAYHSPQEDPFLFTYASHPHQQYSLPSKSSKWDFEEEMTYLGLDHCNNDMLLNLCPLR
Test: co-immunoprecipitation with HA and FLAG mAbs in transfected 293T cells
Description: 293T cells were transfected with different combinations of pΔNp63α-FLAG, pOVOL1-FLAG, and pHA-GCM1 for co-immunoprecipitation analysis with HA and FLAG mAbs. […] 293T cells were transfected with pHA-GCM1 and different pΔNp63α-FLAG plasmids encoding full-length or deletion mutant ΔNp63α-FLAG proteins, followed by co-immunoprecipitation analysis with HA and FLAG mAbs. Schematic representation of functional domains in ΔNp63α is presented. DBD: DNA-binding domain; OD: oligomerization domain; SAM: sterile alpha motif; TID: transactivation inhibitory domain. In a separate experiment, 293T cells were transfected with pΔNp63α-HA and pGAL4-FLAG or different pGAL4-GCM1-FLAG plasmids encoding full-length or deletion mutant GAL4GCM1-FLAG proteins for co-immunoprecipitation analysis with HA and FLAG mAbs. Schematic representation of functional domains in GCM1 is presented. TAD: transactivation domain. […] Glutathione-conjugated agarose beads pre-bound with GST, GST-SAM or GST-OD were incubated with recombinant GCM1-FLAG protein in pull-down assays. […] Mock and ΔNp63α-FLAG-expressing BeWo cells were subjected to immunoblotting (left) and quantitative RT-PCR (right) analyses of GCM1, HTRA4, and hCGβ proteins and transcripts. […] BeWo cells stably expressing scramble or GCM1 shRNA were subjected to immunoblotting (left) and quantitative RT-PCR (right) analyses of GCM1 and ΔNp63α proteins and transcripts.

B1: OVOL1-FLAG (other, human, UniProt O14753 1-267, looked up)
chain: MPRAFLVKKPCVSTCKRNWSELPDEERGEIYVPVSLGFCPPQPYREPEPSVAEPPSCPLALNMSLRDSSYSMAPGPCVVAQLPSEDMGHLTDPQSRDHGFLRTKMKVTLGDSPSGDLFTCRVCQKAFTYQRMLNRHMKCHNDVKRHLCTYCGKGFNDTFDLKRHVRTHTGVRPYKCSLCDKAFTQRCSLESHLKKIHGVQQKYAYKERRAKLYVCEECGCTSESQEGHVLHLKEHHPDSPLLRKTSKKVAVALQNTVTSLLQGSPHL
notes: also called pOVOL1-FLAG; pOVOL-1-FLAG; not shown: C-terminal FLAG tag
Does B1 bind?
Result: no binding
